Experimental data taken from publication PMC2168396 (The EMBO Journal, 2007).
Substitutions are numbered along the chain they refer to. Numbers in names are those of the source. Ends that are not written are not given here.

B1: talin 2300–2541 (C-terminal actin-binding domain, wild type) (domain or fragment, mouse, UniProt P26039 2300-2541, looked up)
chain: DPTVIAENELLGAAAAIEAAAKKLEQLKPRAKPKEADESLNFEEQILEAAKSIAAATSALVKAASAAQRELVAQGKVGAIPANALDDGQWSQGLISAARMVAAATNNLCEAANAAVQGHASQEKLISSAKQVAASTAQLLVACKVKADQDSEAMKRLQAAGNAVKRASDNLVKAAQKAAAFEDQENETVVVKEKMVGGIAQIIAAQEEMLRKERELEEARKKLAQIRQQQYKFLPSELRDEH
B2: talin 2300–2541 A2518D (domain or fragment)
chain: B1 chain with A219D
B3: talin 2300–2541 Q2437E (domain or fragment, mouse, UniProt P26039 2300-2541, looked up)
chain: B1 chain with Q138E
B4: talin 2300–2541 I2316A (domain or fragment, mouse, UniProt P26039 2300-2541, looked up)
chain: B1 chain with I17A
B5: talin 2300–2541 D2385K/D2386N/D2447N (domain or fragment, mouse, UniProt P26039 2300-2541, looked up)
chain: B1 chain with D86K, D87N, D148N
B6: talin 2300–2541 K2443D/V2444D/K2445D (domain or fragment, mouse, UniProt P26039 2300-2541, looked up)
chain: B1 chain with K144D, V145D, K146D
B7: talin 2300–2541 D2385K/D2386N (domain or fragment, mouse, UniProt P26039 2300-2541, looked up)
chain: B1 chain with D86K, D87N
B8: talin 2300–2541 L2309A/L2323A (domain or fragment, mouse, UniProt P26039 2300-2541, looked up)
chain: B1 chain with L10A, L24A
B9: talin 2300–2541 R2513A (domain or fragment, mouse, UniProt P26039 2300-2541, looked up)
chain: B1 chain with R214A
B10: talin 2300–2541 R2519A (domain or fragment)
chain: B1 chain with R220A
B11: talin 2300–2541 Q2388D (domain or fragment, mouse, UniProt P26039 2300-2541, looked up)
chain: B1 chain with Q89D
B12: talin 2300–2541 V2376D (domain or fragment, mouse, UniProt P26039 2300-2541, looked up)
chain: B1 chain with V77D
B13: talin 2300–2541 D2447N (domain or fragment, mouse, UniProt P26039 2300-2541, looked up)
chain: B1 chain with D148N
B14: talin 2300–2541 K2443D (domain or fragment, mouse, UniProt P26039 2300-2541, looked up)
chain: B1 chain with K144D
B15: talin 2300–2541 Q2388R (domain or fragment, mouse, UniProt P26039 2300-2541, looked up)
chain: B1 chain with Q89R
B16: talin 2300–2541 R2526G (domain or fragment)
chain: B1 chain with R227G
B17: talin 2300–2541 R2510A (domain or fragment, mouse, UniProt P26039 2300-2541, looked up)
chain: B1 chain with R211A
B18: talin 2300–2541 I2316A/L2323A (domain or fragment, mouse, UniProt P26039 2300-2541, looked up)
chain: B1 chain with I17A, L24A
B19: talin 2300–2541 K2445D (domain or fragment, mouse, UniProt P26039 2300-2541, looked up)
chain: B1 chain with K146D
B20: talin 2300–2541 V2444D (domain or fragment, mouse, UniProt P26039 2300-2541, looked up)
chain: B1 chain with V145D
B21: talin 2300–2541 L2309A (domain or fragment, mouse, UniProt P26039 2300-2541, looked up)
chain: B1 chain with L10A
B22: talin 2300–2541 L2515D (domain or fragment)
chain: B1 chain with L216D
B23: talin 2300–2541 R2526A (domain or fragment)
chain: B1 chain with R227A
B24: talin 2300–2541 L2515D/A2518D (domain or fragment)
chain: B1 chain with L216D, A219D
B25: talin 2300–2541 L2323A (domain or fragment, mouse, UniProt P26039 2300-2541, looked up)
chain: B1 chain with L24A
B26: talin 2334–2541 (upstream helix deleted) (domain or fragment, mouse, UniProt P26039 2334-2541, looked up)
chain: EADESLNFEEQILEAAKSIAAATSALVKAASAAQRELVAQGKVGAIPANALDDGQWSQGLISAARMVAAATNNLCEAANAAVQGHASQEKLISSAKQVAASTAQLLVACKVKADQDSEAMKRLQAAGNAVKRASDNLVKAAQKAAAFEDQENETVVVKEKMVGGIAQIIAAQEEMLRKERELEEARKKLAQIRQQQYKFLPSELRDEH

What follows are binders tested against filamentous actin (F-actin) from rabbit skeletal muscle (rabbit, UniProt P68135 1-377) (assay: co-sedimentation).
For B1, the “co-sedimentation pellet (% of WT)” value was 100 ± 3 % of WT. For B2, the “co-sedimentation pellet (% of WT)” value was 43 ± 10 % of WT. B3 was tested, and the “co-sedimentation pellet (% of WT)” value was 62 ± 13 % of WT. With B4 the “co-sedimentation pellet (% of WT)” value was 96 ± 9 % of WT. For B5, the “co-sedimentation pellet (% of WT)” value was 138 ± 16 % of WT. For B6, the “co-sedimentation pellet (% of WT)” value was 27 ± 6 % of WT. B7 was tested, and the “co-sedimentation pellet (% of WT)” value was 113 ± 13 % of WT. For B8, the “co-sedimentation pellet (% of WT)” value was 154 ± 7 % of WT. For B9, the “co-sedimentation pellet (% of WT)” value was 66 ± 14 % of WT. With B10 the “co-sedimentation pellet (% of WT)” value was 37 ± 3 % of WT. With B11 the “co-sedimentation pellet (% of WT)” value was 59 ± 5 % of WT. B12 was tested, and the “co-sedimentation pellet (% of WT)” value was 95 ± 5 % of WT. For B13, the “co-sedimentation pellet (% of WT)” value was 144 ± 8 % of WT. B14 was tested, and the “co-sedimentation pellet (% of WT)” value was 43 ± 5 % of WT. For B15, the “co-sedimentation pellet (% of WT)” value was 102 ± 9 % of WT. For B16, the “co-sedimentation pellet (% of WT)” value was 33 ± 5 % of WT. In the case of B17, the “co-sedimentation pellet (% of WT)” value is reported as 77 ± 5 % of WT. With B18 the “co-sedimentation pellet (% of WT)” value was 135 ± 13 % of WT. For B19, the “co-sedimentation pellet (% of WT)” value was 48 ± 10 % of WT. For B20, the “co-sedimentation pellet (% of WT)” value was 54 ± 10 % of WT. B21 was tested, and the “co-sedimentation pellet (% of WT)” value was 113 ± 3 % of WT. For B22, the “co-sedimentation pellet (% of WT)” value was 36 ± 6 % of WT. With B23 the “co-sedimentation pellet (% of WT)” value was 37 ± 9 % of WT. In the case of B24, the “co-sedimentation pellet (% of WT)” value is reported as 42 ± 7 % of WT. B25 was tested, and the “co-sedimentation pellet (% of WT)” value was 127 ± 3 % of WT. With B26 the “co-sedimentation pellet (% of WT)” value was 262 ± 18 % of WT.

Target: the molecule itself
Assay: SEC + other: NMR
With B1 the “stoichiometry N” value was 2. In the case of B3, the “stoichiometry N” value is reported as 2. With B4 the “stoichiometry N” value was 2. B5 was tested, and the “stoichiometry N” value was 2. With B6 the “stoichiometry N” value was 2. In the case of B7, the “stoichiometry N” value is reported as 2. For B8, the “stoichiometry N” value was 2. In the case of B9, the “stoichiometry N” value is reported as 2. For B11, the “stoichiometry N” value was 2. B12 was tested, and the “stoichiometry N” value was 2. B13 was tested, and the “stoichiometry N” value was 2. For B14, the “stoichiometry N” value was 2. For B15, the “stoichiometry N” value was 2. For B17, the “stoichiometry N” value was 2. B18 was tested, and the “stoichiometry N” value was 2. In the case of B19, the “stoichiometry N” value is reported as 2. For B20, the “stoichiometry N” value was 2. In the case of B21, the “stoichiometry N” value is reported as 2. For B25, the “stoichiometry N” value was 2. In the case of B26, the “stoichiometry N” value is reported as 2.

Target: the molecule itself
Assay: crystal structure
MVGGIAQIIAAQEEMLRKERELEEARKKLAQIRQQQYKFLPSELRDEH (domain or fragment, mouse, UniProt P26039 2494-2541, looked up, also: selenomethionine in derivative used for phasing) [talin 2494–2541 (dimerisation domain)]: binds.
